Experimental data: patent CN115925884A (SUN YAT SEN UNIV CANCER CENTER SUN YAT SEN UNIV AFFILIATED …, dated 2023)

Biological target: T1, EBV gB重组蛋白 (recombinant EB virus gB protein with C-terminal 6xHis tag) (EB病毒 (Epstein-Barr virus), UniProt P0C762 23-683, biotin label in the BLI assay (gB-Biotin), site not stated)
T1 construct: Biotinylated for BLI; unlabelled in the Western blot; also called gB蛋白; gB抗原
T1 chain: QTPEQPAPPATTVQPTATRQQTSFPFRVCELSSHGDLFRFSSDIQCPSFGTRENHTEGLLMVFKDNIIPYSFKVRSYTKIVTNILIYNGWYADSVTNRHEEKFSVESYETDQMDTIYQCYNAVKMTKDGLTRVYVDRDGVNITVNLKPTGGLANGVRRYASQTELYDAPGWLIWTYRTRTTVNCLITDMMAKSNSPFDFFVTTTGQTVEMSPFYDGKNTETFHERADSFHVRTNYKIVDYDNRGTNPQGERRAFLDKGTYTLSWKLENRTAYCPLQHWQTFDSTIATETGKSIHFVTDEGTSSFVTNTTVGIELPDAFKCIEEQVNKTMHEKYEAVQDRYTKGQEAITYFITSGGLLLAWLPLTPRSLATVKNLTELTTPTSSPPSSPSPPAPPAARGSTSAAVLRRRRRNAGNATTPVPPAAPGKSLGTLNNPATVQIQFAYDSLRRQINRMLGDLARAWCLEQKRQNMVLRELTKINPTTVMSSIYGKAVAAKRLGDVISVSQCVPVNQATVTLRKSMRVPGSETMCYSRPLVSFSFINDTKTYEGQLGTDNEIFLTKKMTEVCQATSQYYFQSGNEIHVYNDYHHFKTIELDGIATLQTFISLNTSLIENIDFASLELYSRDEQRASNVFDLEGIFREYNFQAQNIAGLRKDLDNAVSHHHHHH
Experiment: BLI, biotinylated gB on SA biosensor, 0-200 nM antibody in solution

B1: 4F10抗体 (monoclonal antibody against EB virus gB antigen) (antibody, V domains shown)
VH: QITLKESGAEMKKPGSSVKVSCKSSDTFKSYGIGWVRQAPGQGLEWMGGVIPVTGTRSYPQKFQGRVTITADESTSTAYMELSRLRSEDTAVYYCGRYMSYLYGMDVWGQGTTVTVSS
VL: DIVLTQTPLSSPVTLGQPASISCRSSQGLVYSDGDTYLNWFQQRPGQSPRRLIYKVSNRDSGVPDRFSGSGSGTDFTLRISRVEAEDVGVYYCMQGAHWPPTFGQGTKLEIK
notes: For flow cytometry the antibody carried a '403' fluorescent label; also called 抗体4F10
Binder B1 has a Kd of 1 pM.
